For experiment [1], the target named is T1, human TNF-alpha (human, UniProt P01375 77-233).
T1 construct: also called hTNF; human TNFα
As to the kind of experiment: SPR (Biacore T200), mouse IgG captured by anti-mouse IgG Fc, human TNF injected at 20 nM. How it is done:
Recombinant rat/mouse chimeric IgG and Fab molecules were screened in the HEK-293-CD40-BLUE reporter assay at a number of concentrations to enable the calculation of EC50 values and determine the maximum percentage inhibition. […] IgG were also analysed in a Biacore experiment to determine binding affinities for human TNF. The assay format of the Biacore experiment was capture of the mouse IgG by immobilised anti-mouse IgG-Fc then titration of human TNF over the captured surface. BIA (Biamolecular Interaction Analysis) was performed using a Biacore T200 (GE Healthcare). Affinipure F(ab′)2 Fragment goat anti-mouse IgG, Fc fragment specific (Jackson ImmunoResearch) was immobilised on a CM5 Sensor Chip via amine coupling chemistry to a level of ˜5000 response units (RUs). HBS-EP buffer (10 mM HEPES pH 7.4, 0.15 M NaCl, 3 mM EDTA, 0.05% Surfactant P20, GE Healthcare) was used as the running buffer with a flow rate of 10 μL/min. A 10 μL injection of mouse IgG at 0.5 μg/mL was used for capture by the immobilised anti-mouse IgG-Fc. Human TNF, was injected over the captured mouse IgG twice at 20 nM at a flow rate of 30 μL/min. The surface was regenerated by 2×10 μL injection of 40 mM HCl, interspersed by a 5 μL injection of 5 mM NaOH at a flowrate of 10 μL/min. Background subtraction binding curves were analysed using the T200evaluation software (version 1.0) following standard procedures.
Neutralisation was determined using the HEK-293-CD40-BLUE reporter assay (Invivogen). […] Biacore analysis was performed to determine binding kinetics.
On the technique in general: SPR reads the build-up and loss of mass on a sensor chip optically.

Experiment [2] concerns the target T1, human TNF-alpha. Nature of the experiment: cell-based or functional assay.
The next experiment concerns the target T2, cynomolgus TNF-alpha (cynomolgus, UniProt P79337 77-233).
T2 construct: also called cyno TNF; cTNF
As to the kind of experiment: SPR (Biacore T200), Fab captured by anti-human F(ab')2, cynomolgus TNF at 3.125 nM. The protocol:
(§1) The assay format of the Biacore experiment was capture of the rat/human chimeric Fabs by immobilised anti-human F(ab′) then titration of human or cynomolgus TNF over the captured surface. BIA (Biamolecular Interaction Analysis) was performed using a Biacore T200 (GE Healthcare). Affinipure F(ab′)2 Fragment goat anti-human IgG-F(ab′)2 fragment specific (Jackson ImmunoResearch) was immobilised on a CM5 Sensor Chip via amine coupling chemistry to a level of ˜5000 response units (RUs). HBS-EP buffer (10 mM HEPES pH 7.4, 0.15 M NaCl, 3 mM EDTA, 0.05% Surfactant P20, GE Healthcare) was used as the running buffer with a flow rate of 10 μL/min. A 10 μL injection of rat/human chimeric at 0.5 μg/mL was used for capture by the immobilised human IgG-F(ab′)2. Human or cynomolgus TNF, was injected over the captured rat/human chimeric Fab at (5 nM or 3.125 nM respectively) at a flow rate of 30 μL/min. The surface was regenerated by 2×10 μL injection of 50 mM HCl, interspersed by a 5 μL injection of 5 mM NaOH at a flowrate of 10 μL/min. Background subtraction binding curves were analysed using the T200evaluation software (version 1.0) following standard procedures.

The target of experiment [3] is T1, human TNF-alpha. As to the kind of experiment: SPR (Biacore T200), Fab captured by anti-human F(ab')2, human TNF at 5 nM. How it is done: as §1

Usually Kd stands for the equilibrium constant for the complex coming apart. The low end stands for tighter binding, the high end for weaker binding. For orientation: koff means the rate constant with which the complex falls apart. Read a low koff as slow dissociation. One may read the kon as the rate constant with which the complex forms. High values mean fast association, low ones slow association.

“And” between values parts separate entries of the source, which are not always exact repeats. Equal entries are not always repeated.

B1: CA2109 IgG (recombinant rat/mouse chimeric IgG, rat variable regions on mouse gamma-1 / mouse kappa) (antibody, V domains shown)
VH: EVQLHQSGAALVKPGASVKLSCKTSGYTFTDNYIHWVKQSPGKSLEWIGYINPSSAYAHYNEKFKTKATLTVDKSTNTAYMELSRLTSEDSATYFCTRRYYSAMPFAYWGQGTLVTVSS
VL: DIVMTQSPASLSASLGETVTIECRASEDIYNGLAWYQQKPGKSPHLLIYNSNTLHTGVPSRFSGTGSGTQYSLKINSLQSEDVATYFCQQNYDFPLTFGSGTKLELK
notes: Rat variable regions cloned into mouse gamma-1 IgG and mouse kappa expression vectors, expressed in HEK-293; also called fwk18 IgG
For the molecule B1, in the experiment with human TNF-alpha [1], the Kd was 0.025 nM, the koff is 0.000119 s⁻¹ and the kon was determined as 4.7e+06 M⁻¹ s⁻¹. The “EC50 (ng/ml), HEK-293-CD40-BLUE reporter assay” value with human TNF-alpha [2] worked out at 0.31 ng/mL.

B2: 02109 rat/human chimeric Fab (Fab, V domains shown)
VH: B1 VH
VL: B1 VL
notes: Rat variable regions with human Fab constant regions; not the humanised graft; also called CA2109
As to B2, in the experiment with cynomolgus TNF-alpha, the Kd was 0.0274 nM and 0.027 nM; the koff worked out at 0.000102 s⁻¹; the kon came out at 3.71e+06 M⁻¹ s⁻¹. For the same molecule, in the experiment with human TNF-alpha [3], the Kd was 0.0349 nM and 0.035 nM; the koff turned out to be 0.000143 s⁻¹; the kon was 4.09e+06 M⁻¹ s⁻¹.

The values above are taken from patent publication US20200277366A1 (UCB, published 2020).
